# Source: US20040138134A1
# Where no end group is shown, it is not given here.
# B1: CNP variant SEQ ID NO:22 (peptide)
# chain: CFGLKLDRIGC
# B2: CNP variant SEQ ID NO:17 (peptide)
# chain: CFGLKLDRIGAMC
# modifications: ends and bridges not checked; cysteine pairing not given here
# B3: CNP variant SEQ ID NO:19 (peptide)
# chain: CFGLKLDRIGAQC
# B4: CNP variant SEQ ID NO:18 (peptide)
# chain: CFGLKLDRIGSQC
# B5: CNP variant SEQ ID NO:8 (peptide)
# chain: CFGLKLDAIGSMSGLGC
# B6: CNP variant SEQ ID NO:7 (peptide)
# chain: CFGLKLARIGSMSGLGC
# B7: CNP variant SEQ ID NO:6 (peptide)
# chain: CAGLKLDRIGSMSGLGC
# B8: CNP variant SEQ ID NO:23 (peptide)
# chain: CHFGLKLDRIC
# B9: CNP 5-22 (17-mer, cyclic domain of CNP) (peptide)
# chain: CFGLKLDRIGSMSGLGC
# modifications: not fully specified (bridges); ends and bridges not checked
# B10: CNP variant SEQ ID NO:20 (peptide)
# chain: CHFGLKLDRIGSC
# B11: CNP variant SEQ ID NO:9 (peptide)
# chain: CFGLKLDRAGSMSGLGC
# B12: CNP variant SEQ ID NO:21 (peptide)
# chain: CFGLKLDRIGSC
# B13: CNP variant SEQ ID NO:11 (peptide)
# chain: CHFGLKLDRIGSMSC
# B14: CNP variant SEQ ID NO:12 (peptide)
# chain: CHFGLKLDRIGSMAC
# Biological target: natriuretic peptide receptor on C3H10T1/2 cells
# Test: cell-based or functional assay
row,"% relative binding (cGMP, Biotrak EIA, peptide at 10^-6 M)",Binder
1,4.2%,B1
2,3.4%,B2
3,3.8%,B3
4,11.8%,B4
5,18.4%,B5
6,49.1%,B6
7,43.8%,B7
8,3.8%,B8
9,127%,B9
10,11.9%,B10
11,11.5%,B11
12,22.7%,B12
13,25.9%,B13
14,21.7%,B14

# Biological target: natriuretic peptide receptor on C3H10T1/2 cells
# Test: cell-based or functional assay
# Remark: another data set of the same source
row,"% relative binding (cGMP, Biotrak EIA, peptide at 10^-6 M)",Binder
1,100%,B9
